The values that follow come from the supplement of paper PMC10567573.

± gives the standard deviation.

This series can be described thus: protein stability index of a GFP-peptide fusion (GPS, HEK-293T) (PSI 1-6); higher = more stable.
[1] abbreviates: treatment: DMSO, c terminus: a fixed tail appended.
[2] abbreviates: treatment: MLN4924 1 uM, 8 h, c terminus: a fixed tail appended.
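Also: 24-mer peptide tiles fused after GFP, lentivirally expressed, FACS-sorted into six equal bins by GFP/DsRed ratio, decoded by Illumina sequencing, PSI is the read-weighted mean bin number.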

For AAARCVVLDCRPYLAFAASNVRGS [DUSP5], the protein stability index by setting is: under setting [1], 2.15 ± 0.55; under setting [2], 2.2 ± 0.093. As to AAASPYIRTKLNYNPPKDDGSTYK [GAN], the protein stability index was found to be 3.98 ± 0.11 under setting [1] and 3.79 ± 0.2 under setting [2].

AAKIIPHSRVAKPHQREKIDKEIE [PLK2] gave a protein stability index under setting [1] of 5.02 ± 0.42 and a protein stability index under setting [2] of 4.7 ± 0.4. AAKTLPGGAGKGRTPSAFPQTPAA [EHMT1]: the protein stability index is 4.26 ± 0.33 under setting [1] and 4.39 ± 0.085 under setting [2]. The matching figures for AAQSTKSPWNFLGDELYEQSDEEQ [CLPTM1]: 5.25 ± 0.19 and 5.35 ± 0.18. In the case of AAYSSILSSLGENPQRQGLLKTPW [GCH1], the protein stability index turned out to be 2.54 ± 0.22 under setting [1] and 2.55 ± 0.29 under setting [2].

ADDAAAVAAKCPRLSECSSPPDYL [TRIB1] came in with a protein stability index under setting [1] of 5.03 ± 0.79 and a protein stability index under setting [2] of 5.22 ± 0.17. With ADFEQKMLDSALRFQAMEETHLRH [FCHO1], the protein stability index is 3.88 ± 0.29 under setting [1] and 3.93 ± 0.24 under setting [2]. Regarding ADFESEDEGEEFDDWEDDYDYPEE [EID1], the protein stability index under setting [1] was found to be 4.62 ± 0.29 and the protein stability index under setting [2] stood at 4.87 ± 0.35. ADGARSAVVAAGGGSSGQVTSNGS [CLPTM1] yielded a protein stability index under setting [1] of 5.3 ± 0.065 and a protein stability index under setting [2] of 5.09 ± 0.14.

In the case of ADPLDTPPDSKEGIVVESNHDSHM [PDZK1], the protein stability index stood at 5.53 ± 0.1 under setting [1] and 5.36 ± 0.33 under setting [2]. Consider ADRAQKMDGESEEEQESVDTGEEE [EHMT1], for which the protein stability index is 5.78 ± 0.16 under setting [1] and 5.73 ± 0.32 under setting [2].

As to ADSLQASMEKDATLNVDRKEKCVS [DLC1], the protein stability index is, setting by setting: under setting [1], 5.35 ± 0.35; under setting [2], 5.3 ± 0.25. For AEITQIQSHISDMSVILSMDNNRN [KRT71], the protein stability index runs as follows: under setting [1], 3.73 ± 0.16; under setting [2], 3.7 ± 0.14.

In the case of AENLDVKINENVAAGMRFPLPEAI [PCDHGA10], the protein stability index by setting is: under setting [1], 4.29 ± 0.2; under setting [2], 4.28 ± 0.15. For the sequence AEVVKILQTMLRQSAFLHLPLPEQ [INTS4], the protein stability index under setting [1] was 2.75 ± 0.51 and the protein stability index under setting [2] was 2.89 ± 0.22. AFRYLSWILFPLLGCYAVYSLLYL [CLPTM1]: the protein stability index came out at 2.29 ± 0.44 under setting [1] and 3.03 ± 0.66 under setting [2]. As for AGEEDPSGMVTIITGLPLDNPSVL [SMG5], the protein stability index was 3.7 ± 0.18 under setting [1] and 3.75 ± 0.19 under setting [2]. The corresponding values for AGTGAQAGQLMGFFKGIDQDIERG [LYSMD4] are 4.01 ± 0.37 and 4.01 ± 0.29. The matching figures for AHIALETLEGHQRAIMAHMTVEEI [FLOT1]: 3.25 ± 0.29 and 3.51 ± 0.32. The sequence AHIRAERDILVEADGAWVVKMFYS [STK38L] gave a protein stability index under setting [1] of 2.24 ± 0.3 and a protein stability index under setting [2] of 2.27 ± 0.2. AIAKQALKKPIKGKQAPRKKAQGK [KMT5A]: the protein stability index under setting [2] worked out at 4.02 ± 0.17.

As to AIEHFQPNADLLFSDPSQSDPETK [FCHO1], the protein stability index under setting [1] turned out to be 5.5 ± 0.074 and the protein stability index under setting [2] was found to be 5.44 ± 0.25. As for AILEMKWKVRAEKEACQREKELPA [ZBED2], the protein stability index under setting [1] was found to be 3.47 ± 0.29 and the protein stability index under setting [2] turned out to be 3.56 ± 0.55. The matching figures for AIQLLSRMEYVHSKNLIYRDVKPE [CSNK1G1]: 2.28 ± 0.2 and 2.33 ± 0.31.

As for AISLSTGRESYIPGICVARVYHGW [SLA], the protein stability index was 2.92 ± 0.85 under setting [1] and 2.48 ± 0.92 under setting [2]. Turning to AKECMLQEENKSLREENKALREEN [CBY2], the protein stability index runs as follows: under setting [1], 5.55 ± 0.22; under setting [2], 5.51 ± 0.2.

For ALAKKFIDKNTQLTLQVYREQADS [TRIM14], the protein stability index is, setting by setting: under setting [1], 2.88 ± 0.31; under setting [2], 3.09 ± 0.49.

On to ALGNEGDTFHQDNQPSGLIRTYLG [RHOBTB3], for which the protein stability index reads like this: under setting [1], 3.48 ± 0.33; under setting [2], 3.85 ± 0.37.

On to ALLKFKPGAFIAGVPVQPVLIRYP [LPCAT4], for which the protein stability index was found to be 2.54 ± 0.73 under setting [1] and 2.39 ± 0.7 under setting [2]. On to ALQRLDLRNNQISHKGAEELALAL [LRRC45], for which the protein stability index by setting is: under setting [1], 3.22 ± 0.24; under setting [2], 3.05 ± 0.43. Consider ALRQTVEADVNGLRRVLDELTLAR [KRT16], for which the protein stability index under setting [1] came out at 3.18 ± 0.58 and the protein stability index under setting [2] stood at 3.06 ± 0.33. As for ALSCHEQEMVVSSLVIGALLASLT [SLC2A12], the protein stability index under setting [1] worked out at 3 ± 0.64 and the protein stability index under setting [2] came to 3.09 ± 0.29.

For the sequence ALSQLICFCRESRYMDQWVPVINL [GADD45A], the protein stability index is 2.95 ± 0.45 under setting [1] and 3.06 ± 0.76 under setting [2]. With ALTYACAGGYVDVVKVLLESGASI [ANKRD17], the protein stability index stood at 2.64 ± 0.33 under setting [1] and 2.79 ± 0.48 under setting [2].

As to ALVRTRMQAQASIEGAPEVTMSSL [SLC25A25], the protein stability index is, setting by setting: under setting [1], 3.6 ± 0.34; under setting [2], 3.59 ± 0.33. As for ALVYLPGVIAAIVQLHNGTKYKKF [STEAP1], the protein stability index stood at 2.73 ± 0.44 under setting [1] and 2.75 ± 0.68 under setting [2]. The matching figures for ALWQVLARDCFATGRHYWEVDVQE [TRIM14]: 2.4 ± 0.65 and 2.4 ± 0.24. In turn, AMQASKATKITLSAIYKWITDNFC [FOXJ1] had a protein stability index under setting [1] of 2.28 ± 0.27 and a protein stability index under setting [2] of 2.14 ± 0.23. The sequence ANPQYTVYSQASTMSIPVAMETDG [PPP2R5C] displayed a protein stability index under setting [1] of 4.26 ± 0.33 and a protein stability index under setting [2] of 4.41 ± 0.21. Sequence APDDSKAQAHRIHIDPEIQDGSPT [PDLIM4] returned a protein stability index under setting [1] of 5.59 ± 0.23 and a protein stability index under setting [2] of 5.47 ± 0.12. The corresponding values for APEYRGRTELLKDAIGEGKVTLRI [MOG] are 2.59 ± 0.2 and 2.72 ± 0.38. In the case of APHHHHHHSHSGPEISRIIVDPTT [PLK2], the protein stability index under setting [1] stood at 4.22 ± 0.12 and the protein stability index under setting [2] is 4.12 ± 0.22. On to APLLRWVLTLSFLVATVAVGLYAM [HMOX1], for which the protein stability index was 2.84 ± 0.56 under setting [1] and 2.74 ± 0.69 under setting [2]. On to APLVKTLEKEEEKDLVMYSKCQRL [CDC25B], for which the protein stability index is, setting by setting: under setting [1], 4.69 ± 0.42; under setting [2], 4.59 ± 0.052.

On to AQDLGLKMTDLLSRRLQLGSEENG [PCDHGC5], for which the protein stability index is 3.94 ± 0.22 under setting [1] and 3.77 ± 0.19 under setting [2]. For AQSRLEDPGQDLVPKQAIQVQEAD [DLX1], the protein stability index turned out to be 5.35 ± 0.18 under setting [1] and 5.32 ± 0.27 under setting [2]. In the case of AQTPLHVAAETGHTSTARLLLHRG [RIPK4], the protein stability index reads like this: under setting [1], 3.89 ± 0.12; under setting [2], 3.91 ± 0.38.

ARGTPSPKRMPSGRGGRDRFTAES [FSD1] displayed a protein stability index under setting [1] of 4.43 ± 0.3 and a protein stability index under setting [2] of 4.69 ± 0.069. The sequence ATEQAATQESTFQELCEGLLEESD [NOP53] displayed a protein stability index under setting [1] of 5.61 ± 0.19 and a protein stability index under setting [2] of 5.58 ± 0.12. ATIVFATDFYLIFNDVAKFLKQGD [CMTM3] had a protein stability index under setting [1] of 2.9 ± 0.91 and a protein stability index under setting [2] of 2.77 ± 0.43. As for ATSESTTVEPGKLDVGATEGQDLQ [DRICH1], the protein stability index was 5.46 ± 0.27 under setting [1] and 5.5 ± 0.22 under setting [2]. The corresponding values for ATYCVRTFALYKNGSSEKREVRQF [PTPRD] are 2.44 ± 0.4 and 2.35 ± 0.39. The corresponding values for AVAHMKYMGKGSMTGLALKHMFER [MATN2] are 2.07 ± 0.3 and 2.34 ± 0.26. Consider AVDCKWYIRAPPRSKIYLRFLDYE [NETO1], for which the protein stability index by setting is: under setting [1], 2.43 ± 0.24; under setting [2], 2.19 ± 0.38. Regarding AVDGILHMFTPKLDKMLDPQVWRE [SLC6A17], the protein stability index runs as follows: under setting [1], 2.27 ± 0.34; under setting [2], 2.53 ± 0.25. Regarding AVIYLKKTPEEAYRALLSGSNPPY [CDC14A], the protein stability index is, setting by setting: under setting [1], 2.21 ± 0.44; under setting [2], 2.15 ± 0.46. In the case of AVSCPYLPSNLLKKFRSSTSSSLG [KCNA4], the protein stability index under setting [1] was 2.54 ± 0.21 and the protein stability index under setting [2] is 2.58 ± 0.2.

CAGKAKRSGGHAPRVRELLLDALS [ESR2]: the protein stability index is, setting by setting: under setting [1], 2.38 ± 0.29; under setting [2], 2.52 ± 0.25. Consider CALEEYVRSQYPNQPTRFGKLLLR [NR2F2], for which the protein stability index under setting [1] was 2.22 ± 0.17 and the protein stability index under setting [2] was determined as 2.33 ± 0.25.

For the sequence CDKKAMVWDMRSGQCVQAFETHES [GNB5], the protein stability index under setting [1] stood at 3.67 ± 0.27 and the protein stability index under setting [2] came to 3.73 ± 0.29. With CDYSQYFKTIEELRDKIMATTIDN [KRT15], the protein stability index is, setting by setting: under setting [1], 3.28 ± 0.12; under setting [2], 3.22 ± 0.17. The matching figures for CFIQSSHLIRHQITHTREEQPHGR [ZNF8]: 3.4 ± 0.12 and 3.37 ± 0.23.

With CGHTFCRLCLPALSQMGAQSSGKI [TRIM15], the protein stability index came to 2.12 ± 0.42 under setting [1] and 2.36 ± 0.46 under setting [2].

For the sequence CKAFSTCVSHLIIVTVHYGCASFI [OR10K2], the protein stability index is, setting by setting: under setting [1], 2.88 ± 0.54; under setting [2], 3.01 ± 0.57. For the sequence CKCSEGFVLAEDGRRCKKCTEGPI [MATN2], the protein stability index came out at 4.99 ± 0.2 under setting [1] and 5.41 ± 0.081 under setting [2].

Regarding CLHHVHYLATEYLETHFRDVSSTE [GAN], the protein stability index by setting is: under setting [1], 2.37 ± 0.23; under setting [2], 2.52 ± 0.54. As for CMPLVCTAIFYTLMTCEMLNRRNG [EDNRA], the protein stability index under setting [1] turned out to be 3.29 ± 0.24 and the protein stability index under setting [2] came to 3.58 ± 0.93. CNQCGKCFIQSSHLIRHQITHTRE [ZNF8] displayed a protein stability index under setting [1] of 4.28 ± 0.19 and a protein stability index under setting [2] of 4.47 ± 0.21.

In the case of CPLKNPTFLDYVRPRSWTCRYVF [SOAT1], the protein stability index is 3.22 ± 0.47 (treatment: DMSO, c terminus: native) and 3.06 ± 0.42 (treatment: MLN4924 1 uM, 8 h, c terminus: native). As to CQHLSSSAEELRKARSNSTLSKSE [KCNA3], the protein stability index reads like this: under setting [1], 5.01 ± 0.33; under setting [2], 4.75 ± 0.26.

As for CQSGYFSSMFSGSWKESSMNIIEL [GMCL1], the protein stability index reads like this: under setting [1], 2.53 ± 0.37; under setting [2], 2.34 ± 0.77.
